# Measurements reported in US20110256153A1 (IMMUNOGEN, published 2011).
# T1: human CD37 (human, UniProt P11049 1-278)
# T1 construct: Tetraspanin antigen; Expressed on 300-19 cells transfected with pSRa-CD37 (entire CDS) or endogenous on WSU-DLCL-2, BJAB and Ramos lymphoma cells; also called CD37 antigen; human CD37 wildtype
# T1 sequence: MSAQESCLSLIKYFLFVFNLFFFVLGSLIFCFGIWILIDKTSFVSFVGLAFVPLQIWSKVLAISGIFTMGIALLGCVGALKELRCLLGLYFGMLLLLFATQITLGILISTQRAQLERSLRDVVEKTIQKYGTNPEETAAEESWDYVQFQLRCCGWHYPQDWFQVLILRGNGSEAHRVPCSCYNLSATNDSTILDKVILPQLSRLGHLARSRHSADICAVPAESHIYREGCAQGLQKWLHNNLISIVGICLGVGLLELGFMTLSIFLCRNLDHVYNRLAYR
# T2: hCD37-M3 (human/murine chimera, UniProt P11049 1-281)
# T2 construct: stably expressed on 300-19 cells; also called hCD37-M3 variant
# T2 chain: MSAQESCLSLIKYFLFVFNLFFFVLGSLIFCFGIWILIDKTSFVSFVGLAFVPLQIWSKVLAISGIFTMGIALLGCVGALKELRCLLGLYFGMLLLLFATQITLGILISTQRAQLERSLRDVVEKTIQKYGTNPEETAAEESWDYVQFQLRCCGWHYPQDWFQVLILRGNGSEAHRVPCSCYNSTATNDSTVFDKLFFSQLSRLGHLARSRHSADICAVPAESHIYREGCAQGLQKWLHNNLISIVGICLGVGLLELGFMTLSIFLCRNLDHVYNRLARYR
# T3: hCD37-M45 (human/murine chimera, UniProt P11049 1-281)
# T3 construct: stably expressed on 300-19 cells; also called hCD37-M45 variant
# T3 chain: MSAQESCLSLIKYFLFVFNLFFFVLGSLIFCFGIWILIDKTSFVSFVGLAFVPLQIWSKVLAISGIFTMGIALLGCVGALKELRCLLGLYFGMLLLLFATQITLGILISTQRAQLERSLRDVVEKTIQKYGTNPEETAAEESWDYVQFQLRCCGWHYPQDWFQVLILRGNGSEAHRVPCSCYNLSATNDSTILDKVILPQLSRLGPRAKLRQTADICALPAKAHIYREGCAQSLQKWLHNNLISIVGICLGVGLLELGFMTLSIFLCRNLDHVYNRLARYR
# T4: hCD37-M1 (human/murine chimera, UniProt P11049 1-281)
# T4 construct: stably expressed on 300-19 cells; also called hCD37-M1 variant
# T4 chain: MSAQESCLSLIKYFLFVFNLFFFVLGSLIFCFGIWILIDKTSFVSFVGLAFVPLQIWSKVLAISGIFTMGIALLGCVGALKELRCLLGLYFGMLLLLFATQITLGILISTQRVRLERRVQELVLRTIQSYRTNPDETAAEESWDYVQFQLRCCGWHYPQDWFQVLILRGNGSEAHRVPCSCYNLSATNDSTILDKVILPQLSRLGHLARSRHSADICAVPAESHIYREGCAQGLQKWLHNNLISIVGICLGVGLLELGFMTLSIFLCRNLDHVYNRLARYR
# T5: macaque CD37 (macaque, UniProt P11049 1-277 (human entry))
# T5 construct: Expressed on 300-19 cells transfected with pSRa-CD37mac (300-19/CD37mac cells); also called macaca CD37; macaque derived CD37 antigen
# T5 chain: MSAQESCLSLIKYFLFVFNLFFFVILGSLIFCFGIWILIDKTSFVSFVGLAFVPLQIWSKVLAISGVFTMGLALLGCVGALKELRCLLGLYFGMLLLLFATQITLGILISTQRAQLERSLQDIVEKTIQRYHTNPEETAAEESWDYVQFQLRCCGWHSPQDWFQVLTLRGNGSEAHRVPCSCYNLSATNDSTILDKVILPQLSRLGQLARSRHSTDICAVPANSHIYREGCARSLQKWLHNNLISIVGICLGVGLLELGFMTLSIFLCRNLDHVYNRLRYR
# How the values were obtained:
# human CD37 [1] = target: T1, human CD37; assay: flow cytometry titration on BJAB cells; apparent Kd
# In short: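 BJAB cells were incubated 3 h with titrated antibody in RPMI-1640 containing 2% goat serum, then 1 h with FITC anti-mouse or anti-human IgG, fixed in 1% formaldehyde and read by flow cytometry. Apparent Kd was derived by non-linear regression of the dose-response curves.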
# hCD37-M3 = target: T2, hCD37-M3; assay: flow cytometry, 300-19 cells expressing hCD37-M3, 1.5 µg/mL antibody
# Description: (§1) Binding specificity was tested by flow cytometry using purified antibodies. […] All murine antibodies were incubated for 3 h with either CD37-expressing 300-19 cells or the non-transfected 300-19 cells (1×10⁵ cells per sample) in 100 μL FACS buffer (RPMI-1640 medium supplemented with 2% normal goat serum). Then, the cells were pelleted, washed, and incubated for 1 h with 100 μL of FITC-conjugated goat anti-mouse IgG-antibody (Jackson Laboratory, 6 μg/mL in FACS buffer). The cells were pelleted again, washed with FACS buffer and resuspended in 200 μL of PBS containing 1% formaldehyde. Samples were acquired using a FACSCalibur flow cytometer with the HTS multiwell sampler or a FACS array flow cytometer and analyzed using CellQuest Pro (all from BD Biosciences, San Diego, US).
# (§2) Binding of various CD37 antibodies to cells expressing human CD37 wildtype and variants was analyzed by flow cytometry using 1.5 μg/mL of each antibody. The isolated antibodies of this invention were compared to commercially available CD37 antibody WR17, as well as the TRU-016 SMIP. […] Likewise, all antibodies tested bound the hCD37-M3 variant (FIG. 18B). In contrast, the isolated antibodies of this invention bound the hCD37-M1 variant, while TRU-016 and WR17 were unable to bind hCD37-M1 variant (FIG. 19A). The CD37-50 and CD37-51 antibodies and TRU-016 were also able to bind the hCD37-M45 variant. […] In contrast, the CD37-3, CD37-12, CD37-38, CD37-56 and CD37-57 antibodies require at least one of the AA residues in the hCD37-M45 variant that were changed to the corresponding murine AA residues for binding to the CD37 antigen.
# hCD37-M45 [2] = target: T3, hCD37-M45; assay: flow cytometry, 300-19 cells expressing hCD37-M45, 1.5 µg/mL antibody
# Description: as §1
# Binding of various CD37 antibodies to cells expressing human CD37 wildtype and variants was analyzed by flow cytometry using 1.5 μg/mL of each antibody. The isolated antibodies of this invention were compared to commercially available CD37 antibody WR17, as well as the TRU-016 SMIP. […] Likewise, all antibodies tested bound the hCD37-M3 variant (FIG. 18B). In contrast, the isolated antibodies of this invention bound the hCD37-M1 variant, while TRU-016 and WR17 were unable to bind hCD37-M1 variant (FIG. 19A). The CD37-50 and CD37-51 antibodies and TRU-016 were also able to bind the hCD37-M45 variant. […]
# hCD37-M1 = target: T4, hCD37-M1; assay: flow cytometry, 300-19 cells expressing hCD37-M1, 1.5 µg/mL antibody
# Description: as §1, §2
# macaque CD37 = target: T5, macaque CD37; assay: flow cytometry, 300-19/CD37mac cells
# In short: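 300-19 cells transfected with macaque CD37, alongside non-transfected 300-19 cells (1×10⁵ per sample), incubated 3 h with purified antibodies in RPMI-1640 with 2% normal goat serum. Bound antibody detected with FITC-conjugated anti-mouse or anti-human secondary for 1 h. Cells fixed in 1% formaldehyde before flow cytometry.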
# human CD37 [3] = target: T1, human CD37; assay: flow cytometry titration on WSU-DLCL-2 cells; EC50 taken as apparent Kd
# Description: as §1
# To verify that the antibodies can also bind to endogenously expressed CD37, binding experiments were performed with CD37-positive WSU-DLCL-2 lymphoma cells and the muCD37-3, muCD37-12, muCD37-8, muCD37-10 or muCD37-14 antibodies. WSU-DLCL-2 cells were incubated with varying concentrations of murine antibodies and processed as described above for flow cytometry analysis. Data analysis was performed using CellQuest Pro (BD Biosciences, San Diego, US) and for each sample the mean fluorescence intensity for FL1 (MFI) was exported and plotted against the antibody concentration in a semi-log plot (FIG. 3). […]
# human CD37 [4] = target: T1, human CD37; assay: flow cytometry titration on Ramos cells; apparent Kd
# Description: as §1
# The chimeric antibodies chCD37-3 and chCD37-12 were assayed for their binding affinity to Ramos cells in comparison to their murine counterparts. Flow cytometry binding assays using Ramos cells and muCD37-3, chCD37-3, muCD37-12 and chCD37-12 antibodies were carried out and analyzed as described in Example 2 using secondary FITC-conjugated goat-anti-murine and -anti-human antibodies. FIG. 9A depicts the dose-response curves generated by non-linear regression for each antibody. The value for the apparent dissociation constant (Kd) of each antibody was calculated using GraphPad Prism v4 (GraphPad software, San Diego, Calif.).
# hCD37-M45 [5] = target: T3, hCD37-M45; assay: flow cytometry, 300-19 cells expressing hCD37-M45
# Description: as §1, §2
Binder,Kd (human CD37 [1]),binding result (hCD37-M3),binding result (hCD37-M45 [2]),binding result (hCD37-M1),binding result (macaque CD37),Kd (human CD37 [3]),Kd (human CD37 [4]),binding result (hCD37-M45 [5])
"muCD37-50 (antibody, mouse IgG2a, kappa, V domains shown, Murine hybridoma antibody) VH: DVQLQESGPDLLKPSQSLSLTCTVTGYSITSGFAWHWIRQFPGNKLEWMGYILYSGSTVYSPSLKSRISITRDTSKNHFFLQLNSVTTEDTATYYCARGYYGYGAWFAYWGQGTLVTVSA VL: QIVLTQSPAIMSASPGEKVTMTCSATSSVTYMHWYQQKSGTSPKRWIYDTSKLPYGVPGRFSGSGSGTSYSLTISSMEAEDAATYYCQQWSDNPPTFGSGTKLEIKR",0.6 nM,binds,binds,binds,–,–,–,–
"muCD37-51 (antibody, mouse IgG2a, kappa, V domains shown, Murine hybridoma antibody) VH: DVQLQESGPDLLKPSQSLSLTCTVTGYSISSGFAWHWIRQFPGNKLEWMGYIHYSGSTNYSPSLKSRISITRDSSKNQFFLQLNSVTTEDTATYYCARGYYGFGAWFVYWGQGTLVTVSA VL: QIVLTQSPAIMSASPGEKVTMTCSATSSVTYMHWYQQKSGTSPKRWIYDTSKLASGVPARFSGSGSGTSYSLTISNMEAEDAATYYCQQWSSNPPTFGSGTKLEIKR",0.6 nM,binds,binds,binds,binds,–,–,–
"muCD37-12 (antibody, mouse IgG2a, kappa, Murine hybridoma antibody) heavy: QIQLVQSGPELKKPGETVKISCKASGYTFTKYGMNWVKQAQGKGLKWMGWINTNTGESRNAEEFKGRFAFSLETSASTAYLQINNLKYEDTATYFCGRGTVVADWGQGTTLTVSSAKTTAPSVYPLAPVCGDTTGSSVTLGCLVKGYFPEPVTLTWNSGSLSSGVHTFPAVLQSDLYTLSSSVTVTSSTWPSQSITCNVAHPASSTKVDKKIEPRGPTIKPCPPCKCPAPNLLGGPSVFIFPPKIKDVLMISLSPIVTCVVVDVSEDDPDVQISWFVNNVEVHTAQTQTHREDYNSTLRVVSALPIQHQDWMSGKEFKCKVNNKDLPAPIERTISKPKGSVRAPQVYVLPPPEEEMTKKQVTLTCMVTDFMPEDIYVEWTNNGKTELNYKNTEPVLDSDGSYFMYSKLRVEKKNWVERNSYSCSVVHEGLHNHHTTKSFSRTPGK light: DIVLTQSPASLAVSLGQRATISCRASQSVSTSSYSYLYWFQQKPGQPPKLLIKYASNLASGVPARFSGSGSGTDFTLNIHPVEEEDTATYYCQHSWEIPYTFGGGTKLEIKRADAAPTVSIFPPSSEQLTSGGASVVCFLNNFYPKDINVKWKIDGSERQNGVLNSWTDQDSKDSTYSMSSTLTLTKDEYERHNSYTCEATHKTSTSPIVKSFNRNEC",–,binds,–,binds,no binding,1.1 nM,0.8 nM,no binding (tested: 1.5 µg/mL)
